Reference: the nanobody polyreactivity screen of Harvey et al. (2022)

Assay: yeast display, Sf9 membrane polyspecificity reagent, FACS + sequencing; frameworks hold sequencing errors
Outline: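 Nanobodies came from a synthetic yeast display library in Saccharomyces cerevisiae BJ5465, induced with galactose for 36–48 hours and stained for 1 hour at 4 °C with 10% biotinylated, detergent-solubilized Sf9 membrane reagent. Cells were enriched on streptavidin microbeads and then FACS-sorted, with low and high (top ~1%) gates set on anti-HA fluorescence for expression and streptavidin fluorescence for reagent binding. Each polyreactivity label reflects the gate a clone came from. Genes were amplified by colony PCR, sequenced by MiSeq 2 × 250 and filtered by CDR length.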

| Sequence | polyreactivity (PSR sort gate) |
| --- | --- |
| QVQLVESGGGLVQAGGSLRLSCAASGFIFVSYAMGWDRQAPGKERELVATITWGGGSTYYADSVKGRFTISRDNAKNTVYLQMNSLKPVDTAVYYCAADYPYSPIFDRYVEYEYWGQGTQVTVSS | low polyreactivity |
| QVQLVESGGGLVQAGGSLRLSCAASGFIFVWYAMGWYRQAPGKEREMVAAISFSGSSTYYADSVKGRFTITRDNAKNTVYLQMNSLKPEDTAVYYCAKRIAKYIPRYKFDYWGQGTQVTVSS | high polyreactivity |
| QVQLVESGGGLVQAGGSLRLSCAASGFIFVYNAMGWYRQAPGKERELVAVISSGGSTYYADSVKGRFTISRDNAKNTVYLQMNSLKPEDTAVYYCNKRRYDIKDEYDYWGQGTQVTVSS | low polyreactivity |
| QVQLVESGGGLVQAGGSLRLSCAASGFIFWDNTMGWYRQAPGKERELVAAISGGDGTYYADSVKGRFTISRDNAKNTVYLQLNSLKPEDTAVYYCNAATAEVKLYGKYDYWGQGTQVTVSS | low polyreactivity |
| QVQLVESGGGLVQAGGSLRLSCAASGFIFWDYAMGWNRQAPRKERELVAAISDSGGDTYYADSVKGRFTISRDNAKNTVYLQMNSLIPEDTAVYYCAADVVLWVFRGQQYDYWGQGTQVTVSS | low polyreactivity |
| QVQLVESGGGLVQAGGSLRLSCAASGFIFWINAMGWYRQAPGKERELVAAITKNGGTTYYADSVKGRFTISRDNAKNTVYLLMNSLKPEDTAVYYCAAGGIGGDQEVEGPMNYWGQGTQVTVSS | low polyreactivity |
| QVQLVESGGGLVQAGGSLRLSCAASGFIFWLNAMGWYRQAPGKERELVAAISIGGRTNYADSVKGRFTISRDNAKNTVYLQMNSLKPEDTAVYYCNKDYRSVYKGRGFDYWGQGTQVTVSS | low polyreactivity |
| QVQLVESGGGLVQAGGSLRLSCAASGFIFWLYAMGWYRQAPGKEREVVAGITRGGGSTYYADSVKGRFTISRDNAKNTVYLQMNSLKPEDTAVYYCAADAWSSYLDRPFDYWGQGTQVTVSS | high polyreactivity |
| QVQLVESGGGLVQAGGSLRLSCAASGFIFWLYPMGWYRQAPGKERELVAAISSSGGNTYYADSVKGRFTISRDNAKNTVDLQMISLKPEDTAVYYCAASYSYGRTYSGYYWGQGTQVTVSS | low polyreactivity |
| QVQLVESGGGLVQAGGSLRLSCAASGFIFWRNAMGWYRQAPGKEREFVARISSSGGSTYYADSVKGRFTISRDNAKNTVYLQMNSLKPEDTAVYYCNADVWYRYGYFRYDYWGQGTQVTVSS | high polyreactivity |
| QVQLVESGGGLVQAGGSLRLSCAASGFIFWSYAMGWYRQAPGKERELVAAITRRGGSTYYADSVKGRFTISRDNAKNTVYLQMNSLKPEDTAVYYCNARRTYNGPVYPYYSGVNYWGQGTQVTVSS | high polyreactivity |
| QVQLVESGGGLVQAGGSLRLSCAASGFIFWSYAMVWYRQAPGKERELVAAISHGGSTNYADSVKGRFTISRDNSKNTVYLQMNSLKPEDTAVYYCAKDELYIPGVWPYYEYDYWGQGTQVTVSS | low polyreactivity |
| QVQLVESGGGLVQAGGSLRLSCAASGFIFWTYAMGWYRQAPGKERELVAAITGGGGTTYYADSVKGRFTISRDTAKNTVYLQMNSLKPEDTAVYYCAAKQYRSRSGGYWGQGTQVTVSS | high polyreactivity |
| QVQLVESGGGLVQAGGSLRLSCAASGFIFWVYAMGWYIQAPGKERELVAAITSGGGSTYYADSVKGRFTISRDNAKNTVYIQMNSLKPDDTAVYYCATRIRTVAYNYWGQGTQVTVSS | high polyreactivity |
| QVQLVESGGGLVQAGGSLRLSCAASGFIFWWYNMGWYRQAPGKERELVAAISGSGGSTYYADSVKGRFTISRDNAKNTVYLQMNSLKPEHTAVYYCAALFGTGQFYYRYDYWGQGTQVTVSS | high polyreactivity |
| QVQLVESGGGLVQAGGSLRLSCAASGFIFWYNAKGWYRQAPGKERELVAAISSGGSTHYADSVKGRFTISRDNAKNTVYLLMNSLKPEDTAVYYCNTDGYHSNRLDDYDYWRQGTQVTVSS | low polyreactivity |
| QVQLVESGGGLVQAGGSLRLSCAASGFIFWYNAMGWYRQAPGKERELVAVISTSGTITYYADSVKGRFTISRDNAKNTVYLQMNSLKPEDTAVYYCAARYYQRANGFGYWGQGTQVTVSS | low polyreactivity |
| QVQLVESGGGLVQAGGSLRLSCAASGFIFWYYALGWYRQAPGKERELVAAISARDGSTYYADSVKGRFTISRDNAKNTVYLQMNSLKPEDTAVYYCNAVQRYPKFRMDYWGQGTQVTVSS | low polyreactivity |
| QVQLVESGGGLVQAGGSLRLSCAASGFIFWYYGMGWYRQAPGKERELVAAINWSGTSTNYADSVKGRFTISRDNAKNTVYLQMNSLKPEDTAVYYCAAEYWYTYSWGQGTQVTVLS | low polyreactivity |
| QVQLVESGGGLVQAGGSLRLSCAASGFIFYAMGWYRQAPGKERELVAAITLSDGTTYYADSVKGRFTISRDNAKNTVYLQMNSLKPEDTAVYYCAAEYSVPYRGWDGYEYWGQGTQVTVSS | low polyreactivity |
| QVQLVESGGGLVQAGGSLRLSCAASGFIFYAYAMGWYRQAPGKERELVPAISRRGGSTYYADSVKGRFTISRDNAKNTVYLQMNSLKPEDTAVYYCARDWTLGRSGPKYGYWGQGTQVTVSS | high polyreactivity |
